The text below walks through data of PMC6827286.

Where a chain is given by its changes, count along the chain named. Names and notes keep the numbering of the source.

Experiment [1] has as its target T1, colFD-NL.
T1 chain: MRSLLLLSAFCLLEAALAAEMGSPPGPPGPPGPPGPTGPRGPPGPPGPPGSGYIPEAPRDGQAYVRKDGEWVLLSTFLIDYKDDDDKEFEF
Description: BRET. As to conditions: chain shown with the change; in the ER of HEK293 cells; n = 4; parent: est. 100; read off a plot. A general note: BRET reads energy transfer from a luciferase to a nearby fluorophore.

Experiment [2] deals with T1, colFD-NL. Description: BRET. As to conditions: chain shown with the change; in the ER of HEK293 cells; n = 4; parent: est. 100; read off a plot.
Experiment [3] concerns the target Collagen (pig's skin type I-C (Nitta Gelatin Inc.)) (pig). Description: SPR; Biacore T200; collagen amine-coupled to a CM5 chip (∼2,000 response units), rmHsp47 injected; 10 mM HEPES, 0.15 M NaCl, 0.05% surfactant P20, pH 7.4; 25 °C; kobs linearization method (Anabel).
Experiment [4] concerns the target colFD-NL (bacteriophage T4). Description: FRET or BRET; NanoBRET in the ER of living, transiently transfected HeLa cells; colFD-NL donor, Hsp47-HT with HT ligand 618 acceptor; 37 °C.
The target in experiment [5] is colFD-NL (bacteriophage T4). Description: FRET or BRET; NanoBRET in the ER of living, transiently transfected HEK293 cells; colFD-NL (NanoLuc) donor, Hsp47-HT with HT ligand 618 (20-100 nM) acceptor; cells washed, furimazine added, 37 °C; BRET ratio 618/460 nm (mBU); some panels with Col003 and derivatives (2 h) or α,α-dipyridyl; the cell line is not named for every panel.

B1: Hsp47-HT, P19324 I352A (protein)
chain: AEVKKPLEAAAPGTAEKLSSKATTLAERSTGLAFSLYQAMAKDQAVENILLSPLVVASSLGLVSLGGKATTASQAKAVLSAEKLRDEEVHTGLGELLRSLSNSTARNVTWKLGSRLYGPSSVSFADDFVRSSKQHYNCEHSKINFRDKRSALQSINEWASQTTDGKLPEVTKDVERTDGALLVNAMFFKPHWDEKFHHKMVDNRGFMVTRSYTVGVTMMHRTGLYNYYDDEKEKLQMVEMPLAHKLSSLIILMPHHVEPLERLEKLLTKEQLKAWMGKMQKKAVAISLPKGVVEVTHDLQKHLAGLGLTEAIDKNKADLSRMSGKKDLYLASVFHATAFEWDTEGNPFDQDAYGREELRSPKLFYADHPFIFLVRDNQSGSLLFIGRLVRPKGDKMRDEL
With B1, the percent of parent was found to be 86% in experiment [1] and 85% in experiment [2].

B2: recombinant mouse Hsp47 (rmHsp47) Y353A (natural protein)
chain: B1 chain with A352I, Y353A
For orientation: Kd means the constant that tells how readily two partners part at equilibrium. Read a low Kd as tighter binding. Molecule B2 came in with a dissociation constant Kd in experiment [3] of 3.6 µM. In other words, the single-digit micromolar range.

B3: recombinant mouse Hsp47 (rmHsp47) I352A (natural protein)
chain: B1 chain
In turn, B3 had a Kd in experiment [3] of 3.3 µM.

B4: recombinant mouse Hsp47 (rmHsp47) WT (natural protein)
chain: B1 chain with A352I
The molecule B4 showed a Kd in experiment [3] of 1.5 µM.

B5: Hsp47-HT (natural protein)
chain: B1 chain with A352I
modifications: HaloTag fluorescent ligand 618 on the HaloTag
Regarding B5, in experiment [4], the BRET ratio (donor to acceptor 1:100, HeLa) was 25 mBU. In addition, the BRET ratio (donor to acceptor 1:50, HEK293) in experiment [5] came to 40 mBU.
